Literature values in PMC3462298.

What was measured:
[1] = molecular target: TRTK-12 (UniProt P52907); experiment: fluorescence competition
[2] = molecular target: TAMRA-TRTK-12 (CapZ peptide) (Homo sapiens); experiment: fluorescence polarization

For S100B (from UniProt P04631), the Kd [1] is listed as 2900 nM and the Kd [2] is listed as 1200 nM.
